Results published in CN115368463A (HEFEI TIANGANG IMMUNOLOGY PHARMACEUTICAL CO LTD, dated 2022).

What was measured:
[1] = molecular target: T1, Nectin-4蛋白 (Homo sapiens (Human), UniProt Q96NY8 32-510); assay: flow cytometry on CHO-K1-Nectin-4 cells, antibody at 0.1-300 μg/mL, Alexa-647 anti-human Fc secondary antibody
T1 construct: also called PVRL4; CHO-K1-Nectin-4细胞
T1 sequence: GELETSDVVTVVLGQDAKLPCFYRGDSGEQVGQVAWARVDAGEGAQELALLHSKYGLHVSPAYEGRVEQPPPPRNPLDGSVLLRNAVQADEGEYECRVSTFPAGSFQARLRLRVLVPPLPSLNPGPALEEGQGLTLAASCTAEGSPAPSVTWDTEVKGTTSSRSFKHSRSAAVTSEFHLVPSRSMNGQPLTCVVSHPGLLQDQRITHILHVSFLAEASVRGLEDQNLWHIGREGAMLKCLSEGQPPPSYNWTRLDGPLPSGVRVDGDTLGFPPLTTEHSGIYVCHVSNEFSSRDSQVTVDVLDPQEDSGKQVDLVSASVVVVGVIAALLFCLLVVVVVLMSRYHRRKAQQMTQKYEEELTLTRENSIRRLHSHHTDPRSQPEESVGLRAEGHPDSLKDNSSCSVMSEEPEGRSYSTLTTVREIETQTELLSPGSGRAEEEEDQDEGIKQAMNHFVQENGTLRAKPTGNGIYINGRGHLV

[2] = molecular target: T2, CD27蛋白 (Homo sapiens (Human), UniProt P26842 20-260); assay: flow cytometry on CHO-K1-CD27 cells, antibody at 0.1-300 μg/mL, Alexa-647 anti-human Fc secondary antibody
T2 construct: also called CHO-K1-CD27细胞; Jurkat-NFAT-lucia-CD27细胞
T2 sequence: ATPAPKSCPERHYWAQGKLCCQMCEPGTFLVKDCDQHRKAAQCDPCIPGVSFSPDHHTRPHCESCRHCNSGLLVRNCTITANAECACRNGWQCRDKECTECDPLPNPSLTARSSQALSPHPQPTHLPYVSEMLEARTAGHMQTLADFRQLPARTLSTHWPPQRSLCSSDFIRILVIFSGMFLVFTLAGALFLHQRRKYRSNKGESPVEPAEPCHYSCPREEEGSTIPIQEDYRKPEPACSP

binding result [1]: binds
binding result [2]: binds
B1: 抗体CD27×Nectin-4 (bispecific antibody, human IgG1, kappa, L234A L235A)
scFv: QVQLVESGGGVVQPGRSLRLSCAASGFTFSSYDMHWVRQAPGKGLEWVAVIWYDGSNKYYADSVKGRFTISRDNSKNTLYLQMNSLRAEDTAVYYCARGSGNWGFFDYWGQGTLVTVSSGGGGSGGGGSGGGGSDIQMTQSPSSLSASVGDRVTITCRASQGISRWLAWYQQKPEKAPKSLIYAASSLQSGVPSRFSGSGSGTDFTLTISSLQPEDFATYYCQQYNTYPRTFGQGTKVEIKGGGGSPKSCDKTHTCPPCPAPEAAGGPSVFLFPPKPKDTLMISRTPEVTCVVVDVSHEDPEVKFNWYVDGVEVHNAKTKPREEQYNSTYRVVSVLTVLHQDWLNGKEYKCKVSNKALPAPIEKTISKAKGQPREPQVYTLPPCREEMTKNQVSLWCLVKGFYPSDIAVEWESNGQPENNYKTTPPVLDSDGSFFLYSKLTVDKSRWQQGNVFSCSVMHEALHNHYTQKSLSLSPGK
heavy: EVQLVESGGGLVQPGGSLRLSCAASGFTFSSYNMNWVRQAPGKGLEWVSYISSSSSTIYYADSVKGRFTISRDNAKNSLSLQMNSLRDEDTAVYYCARAYYYGMDVWGQGTTVTVSSASTKGPSVFPLAPSSKSTSGGTAALGCLVKDYFPEPVTVSWNSGALTSGVHTFPAVLQSSGLYSLSSVVTVPSSSLGTQTYICNVNHKPSNTKVDKKVEPKSCDKTHTCPPCPAPEAAGGPSVFLFPPKPKDTLMISRTPEVTCVVVDVSHEDPEVKFNWYVDGVEVHNAKTKPREEQYNSTYRVVSVLTVLHQDWLNGKEYKCKVSNKALPAPIEKTISKAKGQPREPQVCTLPPSREEMTKNQVSLSCAVKGFYPSDIAVEWESNGQPENNYKTTPPVLDSDGSFFLVSKLTVDKSRWQQGNVFSCSVMHEALHNHYTQKSLSLSPGK
light: DIQMTQSPSSVSASVGDRVTITCRASQGISGWLAWYQQKPGKAPKFLIYAASTLQSGVPSRFSGSGSGTDFTLTISSLQPEDFATYYCQQANSFPPTFGGGTKVEIKRTVAAPSVFIFPPSDEQLKSGTASVVCLLNNFYPREAKVQWKVDNALQSGNSQESVTEQDSKDSTYSLSSTLTLSKADYEKHKVYACEVTHQGLSSPVTKSFNRGEC
notes: also called CD27×Nectin-4抗体; CD27×Nectin-4双特异抗体
